Results on four molecules are retold here after patent US11786578B2, “Modified relaxin polypeptides and their uses” (AMBRX, INC., priority 2010, dated 2023).

One data set is described as follows: in vivo. The note with it: for Mean Conc.: male SD rats. From the text:
This example evaluates the pharmacokinetic properties of wild-type (WT) Relaxin compound following a single subcutaneous injection in SD rats.
SD Rats were received from Charles River Laboratories (CRL) at approximately […] of age (approximately 280 g at study start). The animals were received having been jugular vein catheterized at CRL. Animals then acclimated for 3 days prior to being placed on study.
Animals received a single subcutaneous injection on day 1 and PK samples were collected over the subsequent 12 hours. Blood samples were taken from animals treated with WT rhRelaxin for analysis of serum concentration according to the following sampling schedule (sampling times are approximate): Day 1: pre-dose, 0.33, 0.66, 1, 1.5, 2, 3, 4, 5, 6, 9 and 12 hours post-dose.
Compound concentrations were measured using a bridging ECLA based on an assay which was developed at Ambrx. Concentrations were calculated using a standard curve generated from the corresponding dosed compound and reported in an excel spreadsheet format (see appendix). Pharmacokinetic parameters were estimated using the modeling program WinNonlin (Pharsight, version 5.1). Noncompartmental analysis for individual animal data with linear-up/log-down trapezoidal integration was used, and concentration data was uniformly weighted.
Concentration versus time curves were evaluated by non-compartmental analysis (Pharsight, version 4.1). N=5 rats per group, terminal HL, terminal half-life; Cmax, maximum serum concentration measured; Tmax, time at which Cmax occurred: AUCinf, area under the concentration-time curve for all serum sample/timepoints extrapolated to infinity; Cl, apparent total serum clearance; Vz, apparent volume of distribution during terminal phase. Numbers are mean with SD in parentheses.

The conditions of data set [1]: IV; cited from earlier work.
Data set [2] has as its system primary human cardiac fibroblasts (NHCF-V). The note with it: 1 nM.
Description: NHCF-V cells were isolated from the ventricle of normal, adult heart tissue. Cells stained positive for smooth muscle α-actin and expressed ≥90% collagen I and ≤10% Von Willebrand factor VIII. Cells at passages 3 through 6 were used for the real-time quantitative reverse transcription-polymerase chain reaction (qRT-PCR) studies. Cells were cultured in FGM™-3 BulletKit™ (Cat. #: CC-4526, Lonza) containing 10% FBS complete medium. At confluence, cells were split and cultured in 6-well plates at a density of 150,000/well for 24 hr in complete medium.
Alter treatment, cells in 6-well plates were harvested or total RN A extraction and qRT-PCR analysis. Total RNA was extracted using the RNeasy Mini Kit (Cat. #: 74106, Qiagen) according to the manufacturer's protocols including the on-column removal of genomic cDNA. Real-time qRT-PCR was performed in a two-step manner; cDNA synthesis and real-time detection were carried out in a PTC-100 Thermal Cycler (MJ Research) and an ABI Prism 7700 Sequence Detection System (Applied Biosystems), respectively. TaqMan Universal PCR Master Mix (Applied Biosystems) was used in subsequent PCR reactions according to the manufacturer's protocols. All qRT-PCR reactions were performed in duplicate. […] Data were analyzed for significance by two-way ANOVA followed by a Bonferroni's multiple comparison test using GraphPad Prism Software, version 5.0.
For data set [3], the target named is T1, human RXFP3 (Homo sapiens, UniProt Q9NSD7).
T1 sequence (Q9NSD7 1-469): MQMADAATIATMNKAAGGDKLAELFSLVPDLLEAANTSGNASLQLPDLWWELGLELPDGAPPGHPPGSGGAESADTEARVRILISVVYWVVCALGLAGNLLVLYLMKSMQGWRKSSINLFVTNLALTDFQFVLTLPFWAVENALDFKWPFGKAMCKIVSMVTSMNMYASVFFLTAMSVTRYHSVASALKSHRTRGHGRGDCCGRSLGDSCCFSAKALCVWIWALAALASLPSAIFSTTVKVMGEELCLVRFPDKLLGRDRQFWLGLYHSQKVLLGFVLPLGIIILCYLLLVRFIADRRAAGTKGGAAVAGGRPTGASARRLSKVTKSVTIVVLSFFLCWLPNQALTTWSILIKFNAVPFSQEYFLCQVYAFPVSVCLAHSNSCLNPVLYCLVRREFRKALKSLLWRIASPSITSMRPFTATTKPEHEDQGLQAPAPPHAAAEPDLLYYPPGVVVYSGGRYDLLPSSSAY
In words: Inhibition of forskolin-induced cAMP in human RXFP3/CHO-K1 stable line. In kind it is cell-based. The note with it: CHO-K1 stable line. From the text: (§1) The RXFP cDNAs, RXFP family members, as well as species orthologs, were obtained from commercially available cDNA clones or amplified from tissue RNAs as follows. Human RXFP1: A cDNA clone was obtained from OpenBiosystems (MHS4426-99239031. Human RXFP2: A cDNA clone for transcript variant 1 was obtained from OpenBiosystems (OHS4559-99620528). Cynomolgus monkey RXFP1: The cDNA was cloned out of Mauritian cyno brain RNA by RT-PCR using the following primers: forward: 5′-[…]-3′ (SEQ ID NO: 37); reverse: 5′-[…]-3′ (SEQ ID NO: 38). Dog RXFP1: The cDNA was cloned out of dog brain RNA by RT-PCR using the following primers: forward: 5′-[…]-3′ (SEQ ID NO: 39); reverse: 5′-[…]-3′ (SEQ ID NO: 40). Rat RXFP1: The cDNA was cloned out of Sprague Dawley rat brain RNA by RT-PCR using the following primers: forward: 5′-[…]-3′ (SEQ ID NO: 41); reverse: 5′-[…]-3 (SEQ ID NO: 42)′. Human RXFP3: A Gateway entry clone in vector pDONR221 was obtained from Invitrogen (IOH28381). Human RXFP4: A Gateway entry clone in vector pDONR201 was obtained. Mouse RXFP1: A Gateway entry clone in vector pDONR223 was obtained from OpenBiosystems (OMM4760-101549000). Using standard procedures (Gateway LR recombination), the RXFP entry clones were transferred into expression vector pEF-DEST51 (Invitrogen). In contrast to the all other RXFP clones, human RXFP4 was transferred into pcDNA3.1 (Invitrogen). […]

In data set [4] the target is T2, human RXFP4 (Homo sapiens, UniProt Q8TDU9).
T2 construct: expressed in transfected cells
T2 sequence (Q8TDU9 whole entry): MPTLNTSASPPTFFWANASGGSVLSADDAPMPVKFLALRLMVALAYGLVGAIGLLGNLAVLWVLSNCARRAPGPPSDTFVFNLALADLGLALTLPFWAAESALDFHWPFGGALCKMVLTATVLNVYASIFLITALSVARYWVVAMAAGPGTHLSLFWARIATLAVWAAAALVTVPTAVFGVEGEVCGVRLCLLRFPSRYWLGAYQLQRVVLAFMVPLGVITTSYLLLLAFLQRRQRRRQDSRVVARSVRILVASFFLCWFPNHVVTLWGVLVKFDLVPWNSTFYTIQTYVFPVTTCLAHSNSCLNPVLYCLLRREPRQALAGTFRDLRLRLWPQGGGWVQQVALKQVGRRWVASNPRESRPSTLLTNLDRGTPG
Nature of the data set: Inhibition of forskolin-induced cAMP in human RXFP4/CHO-K1 stable line. In kind it is cell-based. From the text:
The RXFP cDNAs, RXFP family members, as well as species orthologs, were obtained from commercially available cDNA clones or amplified from tissue RNAs as follows. Human RXFP1: A cDNA clone was obtained from OpenBiosystems (MHS4426-99239031. Human RXFP2: A cDNA clone for transcript variant 1 was obtained from OpenBiosystems (OHS4559-99620528). Cynomolgus monkey RXFP1: The cDNA was cloned out of Mauritian cyno brain RNA by RT-PCR using the following primers: forward: 5′-[…]-3′ (SEQ ID NO: 37); reverse: 5′-[…]-3′ (SEQ ID NO: 38). Dog RXFP1: The cDNA was cloned out of dog brain RNA by RT-PCR using the following primers: forward: 5′-[…]-3′ (SEQ ID NO: 39); reverse: 5′-[…]-3′ (SEQ ID NO: 40). Rat RXFP1: The cDNA was cloned out of Sprague Dawley rat brain RNA by RT-PCR using the following primers: forward: 5′-[…]-3′ (SEQ ID NO: 41); reverse: 5′-[…]-3 (SEQ ID NO: 42)′. Human RXFP3: A Gateway entry clone in vector pDONR221 was obtained from Invitrogen (IOH28381). Human RXFP4: A Gateway entry clone in vector pDONR201 was obtained. Mouse RXFP1: A Gateway entry clone in vector pDONR223 was obtained from OpenBiosystems (OMM4760-101549000). Using standard procedures (Gateway LR recombination), the RXFP entry clones were transferred into expression vector pEF-DEST51 (Invitrogen). In contrast to the all other RXFP clones, human RXFP4 was transferred into pcDNA3.1 (Invitrogen). For each construct, the RXFP cDNA, as well as its proper insertion into the expression vector, was verified by DNA sequencing.
CHO-K1 cells (ATCC #CRL-9618) were prepared for stable line generation by propagating at 37° C. with 5% CO2 in F-12 plus GlutaMAX-I medium (GIBCO #31765) supplemented with 10% fetal bovine heat-inactivated serum (Invitrogen #16140), and 1× Antibiotic-Antimycotic (GIBCO #15240-096). CHO-K1 cells were transfected with 12 μg of the appropriate expression construct plasmid using the FuGENE® 6 reagent (Roche #11814443 001) and the protocol provided by the manufacturer. One day post-transfection cells were replated into medium containing 10 μg of Blasticidin S HCl per mL (GIBCO #A11139-02). […]

Data set [5] deals with T2, human RXFP4. Particulars: literature value; read-out: EC50 value reported in the literature, human RXFP4; cited from earlier work.
The target of data set [6] is T1, human RXFP3. Particulars: literature value; read-out: EC50 value reported in the literature, human RXFP3; cited from earlier work.
For data set [7], the target named is T3, human RXFP2 (Homo sapiens, UniProt Q8WXD0). Particulars: literature value; read-out: EC50 value reported in the literature, human RXFP2; cited from earlier work.
T3 sequence (Q8WXD0 whole entry): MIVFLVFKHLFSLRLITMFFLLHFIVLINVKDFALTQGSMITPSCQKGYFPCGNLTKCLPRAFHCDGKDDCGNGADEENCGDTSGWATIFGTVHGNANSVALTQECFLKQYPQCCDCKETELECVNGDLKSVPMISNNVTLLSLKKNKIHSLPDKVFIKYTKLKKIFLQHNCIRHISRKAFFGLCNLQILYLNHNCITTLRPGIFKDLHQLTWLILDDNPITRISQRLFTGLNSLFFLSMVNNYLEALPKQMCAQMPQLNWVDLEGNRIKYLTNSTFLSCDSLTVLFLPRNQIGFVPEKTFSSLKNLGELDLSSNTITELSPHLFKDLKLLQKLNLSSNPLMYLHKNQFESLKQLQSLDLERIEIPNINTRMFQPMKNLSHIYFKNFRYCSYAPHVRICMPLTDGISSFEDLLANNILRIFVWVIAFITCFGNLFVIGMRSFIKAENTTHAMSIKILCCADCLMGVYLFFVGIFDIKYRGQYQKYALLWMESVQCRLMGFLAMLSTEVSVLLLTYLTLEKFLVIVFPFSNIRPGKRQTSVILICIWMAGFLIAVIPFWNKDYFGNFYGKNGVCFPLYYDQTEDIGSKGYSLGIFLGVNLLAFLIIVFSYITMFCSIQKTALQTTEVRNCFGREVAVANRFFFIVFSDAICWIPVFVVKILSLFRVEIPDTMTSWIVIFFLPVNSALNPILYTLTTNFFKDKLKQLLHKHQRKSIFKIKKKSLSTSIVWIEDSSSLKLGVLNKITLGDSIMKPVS
Data set [8] has as its target T3, human RXFP2. Nature of the data set: cAMP assay in human RXFP2/CHO-K1 stable line. In kind it is cell-based. Particulars: CHO-K1 stable line.
From the text: as §1
(In general: Cyclic AMP is a second messenger, typically raised through Gs and lowered through Gi signalling.)

Setting [9] is: 0.5 mg/kg SC, SD rats, mean (SD).
Setting [10] is: Sprague-Dawley, rat, serum, sc, 0.5 mg/kg.
Setting [11] is: CHO-K1 stable line, inhibition of forskolin-induced cAMP.

Where two headings read alike, the source gives them in different places.

As for `CC[C@H](C)[C@@H]1NC(=O)[C@H](C)NC(=O)[C@H]([C@@H](C)CC)NC(=O)[C@H](CCC(N)=O)NC(=O)[C@H](C)NC(=O)[C@H](CCCNC(=N)N)NC(=O)[C@H](C(C)C)NC(=O)[C@H](CC(C)C)NC(=O)[C@H](CCC(=O)O)NC(=O)[C@H](CCCNC(=N)N)NC(=O)CNC(=O)[C@@H](NC(=O)[C@H](CC(C)C)NC(=O)[C@H](CCCCN)NC(=O)[C@@H](NC(=O)[C@@H](NC(=O)[C@H](CCC(=O)O)NC(=O)[C@H](CCC(=O)O)NC(=O)[C@H](CCSC)NC(=O)[C@H](Cc2c[nH]c3ccccc23)NC(=O)[C@H](CO)NC(=O)[C@@H](N)CC(=O)O)C(C)C)[C@@H](C)CC)CSSC[C@@H]2NC(=O)[C@@H](NC(=O)[C@H](CCCCN)NC(=O)[C@H](CC(N)=O)NC(=O)[C@H](C)NC(=O)[C@H](CC(C)C)NC(=O)[C@H](C)NC(=O)[C@H](CO)NC(=O)[C@H](Cc3ccc(O)cc3)NC(=O)[C@H](CC(C)C)NC(=O)[C@@H](N)CCC(N)=O)CSSC[C@H](NC(=O)CNC(=O)[C@H](C(C)C)NC(=O)[C@H](Cc3c[nH]cn3)NC2=O)C(=O)N[C@@H]([C@@H](C)O)C(=O)N[C@@H](CCCCN)C(=O)N[C@@H](CCCNC(=N)N)C(=O)N[C@@H](CO)C(=O)N[C@@H](CC(C)C)C(=O)N[C@@H](C)C(=O)N[C@@H](CCCNC(=N)N)C(=O)N[C@@H](Cc2ccccc2)C(=O)N[C@H](C(=O)O)CSSC[C@@H](C(=O)NCC(=O)N[C@@H](CCSC)C(=O)N[C@@H](CO)C(=O)N[C@H](C(=O)N[C@@H](Cc2c[nH]c3ccccc23)C(=O)N[C@@H](CO)C(=O)O)[C@@H](C)O)NC1=O` [RLX-D-WT], in “in vivo” (setting [9]), the “CL (mL/hr)” value is 1006 (185) mL/hr and the “Vz (mL/kg)” value was 1159 (284) mL/kg. Besides, in “in vivo” (setting [10]), the total exposure AUC(0-inf) (as a rule, the area under the concentration-time curve extrapolated to infinity) amounted to 509 ng·h/mL; the Cmax (commonly the peak of the concentration-time curve) was 258 ng/mL; the mean residence time MRT – broadly, the average time that molecules of a dose stay in the body – was 93.6 min; the Tmax (in general, the time from dosing to the highest level) was 30 min. In “in vivo” (male, SD, rat, serum, sc, 0.5 mg/kg), the half-life (in general, the time in which the quantity being followed falls by half) was 48 min. For the same molecule, the “Mean Conc.” value in “in vivo” (serum, 0.5 mg/kg SC, 6 hr) was “BQL”. In addition, the “Mean Conc.” value in the data set “in vivo” (serum, 0.5 mg/kg SC, 9 hr) is recorded as “BQL”. The “Mean Conc.” value in “in vivo” (serum, 0.5 mg/kg SC, 12 hr) is given as “BQL”. Moreover, in the data set “in vivo” (serum, 0.5 mg/kg SC, pre-dose (PD)), the “Mean Conc.” value is listed as “BQL”. In [1], the “half-life of intravenously administrated Relaxin 2 in humans” value was “less than 10 minutes”.

Turning to `CC[C@H](C)[C@@H]1NC(=O)[C@H](C)NC(=O)[C@H]([C@@H](C)CC)NC(=O)[C@H](CCC(N)=O)NC(=O)[C@H](C)NC(=O)[C@H](CCCNC(=N)N)NC(=O)[C@H](C(C)C)NC(=O)[C@H](CC(C)C)NC(=O)[C@H](CCC(=O)O)NC(=O)[C@H](CCCNC(=N)N)NC(=O)CNC(=O)[C@@H](NC(=O)[C@H](CC(C)C)NC(=O)[C@H](CCCCN)NC(=O)[C@@H](NC(=O)[C@@H](NC(=O)[C@H](CCC(=O)O)NC(=O)[C@H](CCC(=O)O)NC(=O)[C@H](CCSC)NC(=O)[C@H](Cc2c[nH]c3ccccc23)NC(=O)[C@H](CO)NC(=O)[C@@H](N)CC(=O)O)C(C)C)[C@@H](C)CC)CSSC[C@@H]2NC(=O)[C@@H](NC(=O)[C@H](CCCCN)NC(=O)[C@H](CC(N)=O)NC(=O)[C@H](C)NC(=O)[C@H](CC(C)C)NC(=O)[C@H](C)NC(=O)[C@H](CO)NC(=O)[C@H](Cc3ccc(O)cc3)NC(=O)[C@H](CC(C)C)NC(=O)[C@@H](N)CCC(N)=O)CSSC[C@H](NC(=O)CNC(=O)[C@H](C(C)C)NC(=O)[C@H](Cc3c[nH]cn3)NC2=O)C(=O)N[C@@H]([C@@H](C)O)C(=O)N[C@@H](CCCCN)C(=O)N[C@@H](CCCNC(=N)N)C(=O)N[C@@H](CO)C(=O)N[C@@H](CC(C)C)C(=O)N[C@@H](C)C(=O)N[C@@H](CCCNC(=N)N)C(=O)N[C@@H](Cc2ccccc2)C(=O)N[C@H](C(=O)O)CSSC[C@@H](C(=O)NCC(=O)N[C@@H](CCSC)C(=O)N[C@@H](CO)C(=O)N[C@H](C(=O)N[C@@H](Cc2c[nH]c3ccccc23)C(=O)N[C@@H](CO)C(=O)O)[C@@H](C)O)NC1=O` [WT-RLX], in [2], the “Maximal inhibition of collagen type I expression vs TGF-β only treatment” value is at least 70%. For the same molecule, the “cAMP Assay EC50, Human RXFP3” value at human RXFP3 [3] was “essentially inactive”. In addition, the “cAMP Assay EC50, Human RXFP4” value at human RXFP4 [4] (setting [11]) was “essentially inactive”.

Regarding “H3-RLX: H3-relaxin, the endogenous ligand for RXFP3 and RXFP4 receptors, positive control”, the concentration giving a half-maximal response (EC50) (commonly the concentration needed to bring the measured effect to its halfway point) in the data set with human RXFP4 [5] is 1.1 nM; with human RXFP3 [3], 0.6 nM; in the data set with human RXFP4 [4] (setting [11]), 2.8 ± 1.5 nM; in the data set with human RXFP3 [6], 0.4 nM. Besides, in the data set with human RXFP4 [4], the “Maximal inhibition of forskolin-induced cAMP, human RXFP4 (partial agonist activity)” value is about 40%.

B1: INSL3: endogenous ligand for RXFP2 (insulin like 3 protein), R&D Systems (protein, UniProt P51460 21-55; P51460 106-131, looked up)
Insulin-like 3 B chain: LGPAPTPEMREKLCGHHFVRALVRVCGGPRWSTEA
Insulin-like 3 A chain: AAATNPARYCCLSGCTQQDLLTLCPY
Consider B1, for which the values for the concentration giving a half-maximal response (EC50) with human RXFP2 [7] and with human RXFP2 [8] were 0.58 nM and 0.46 ± 0.04 nM, respectively.
